The test system of the data set is O=C[C@H](O)COP(=O)(O)O. Put plainly: Coupled alpha-glycerol-3-phosphate dehydrogenase assay following NADH decrease at 340 nm at 25°C in 100 mM triethanolamine/10 mM EDTA, pH 7.4, with 0.2 mM NADH and GAP varied from 0.3 to 3 mM, fitted to the Michaelis-Menten equation by non-linear regression. Type of data set: biochemical. How it is done:
Glyceraldehyde 3-phosphate (GAP), buffers, salts and all the other analytical grade reagents were acquired from Sigma–Aldrich; α-glycerol-3-phosphate dehydrogenase (α-GDH) was from Roche, crystallization screen kits were obtained from Hampton Research. Restriction enzymes, DNA polymerase and T4 DNA ligase were purchased from New England BioLabs and Invitrogene. Oligonucleotide synthesis and DNA sequencing was performed at the Unidad de Biología Molecular, Instituto de Fisiología Celular, UNAM. Protein concentration was determined by the bicinchoninic acid method or by absorbance at 280 nm for pure GlTIM (ε280 = 26600 M^-1cm^-1). The TIM activity was determined at 25°C by a coupled assay, following the decrease in absorbance at 340 nm. The standard reaction mixture contained 100 mM triethanolamine/10 mM EDTA, pH 7.4 (TE buffer), 1 mM GAP, 0.2 mM NADH, and 0.9 units of α-GDH (20 μg/mL); the reaction was initiated by addition of 5 ng/mL of WT, C222V or C222M GlTIM, 10 ng/mL of C222N, 20 ng/mL of C222D or C222F, and 200 ng/mL of C222K. Kinetic, binding and stability data were analyzed by non-linear regression calculations with Origin software.
Determination of Km and Vmax was performed by fitting initial velocity data at GAP concentrations ranging from 0.3 to 3 mM to the Michaelis-Menten equation (v = Vmax•S/Km+S) by non-linear regression calculations. The kcat was derived from Vmax by considering a molecular mass for the monomer of 27.7 kDa. The Ki for 2-phosphoglycolate (2-PG) was calculated by global fit of initial velocity curves (GAP from 0.3 to 3 mM) obtained at different fixed concentrations of the inhibitor. Prior to fitting collectively the data to the simple competitive inhibition equation (v = Vmax•S/Km(1+I/Ki)+S), individual data were plotted as double reciprocal plots to confirm competitive inhibition.

For the substance C222D (Giardia duodenalis; C222D), the Michaelis-Menten constant (Km) came out at 4880 ± 810 µM, the Vmax is 3720 µmol/min/mg and the kcat stood at 3330 s⁻¹.

As for C222F (Giardia duodenalis; C222F), the Michaelis-Menten constant (Km) amounted to 3900 ± 460 µM, the Vmax amounted to 1660 µmol/min/mg and the kcat is 1500 s⁻¹.

As for C222K (Giardia duodenalis; C222K), the Km came out at 3100 ± 640 µM, the maximal velocity (Vmax) came to 255 µmol/min/mg and the catalytic constant (kcat) came to 217 s⁻¹.

Regarding C222M (Giardia duodenalis; C222M), the Michaelis-Menten constant (Km) stood at 1850 ± 460 µM, the Vmax was found to be 3100 µmol/min/mg and the catalytic constant (kcat) amounted to 2800 s⁻¹.

Turning to C222N (Giardia duodenalis; C222N), the Km was 2790 ± 730 µM, the Vmax is 3650 µmol/min/mg and the kcat worked out at 3320 s⁻¹.

As for C222V (Giardia duodenalis; C222V), the Michaelis constant (Km) worked out at 960 ± 120 µM, the maximal velocity (Vmax) stood at 9560 µmol/min/mg and the kcat is 8670 s⁻¹.

A word on the Km: it is the concentration of substrate that gives half-maximal velocity. For orientation: Vmax means the rate approached at saturating substrate. The term kcat denotes the number of substrate molecules converted per active site and unit of time at saturation.

These data come from article PMC3718800, “Structural and Functional Perturbation of Giardia lamblia Triosephosphate Isomerase by Modification of a Non-Catalytic, Non-Conserved Region” (PLoS ONE, 2013).
